Assay results as given in article PMC2613882, “The FF domains of yeast U1 snRNP protein Prp40 mediate interactions with Luc7 and Snu71” (BMC Biochemistry, 2008).
Each block holds one binder with its values, some of them ahead of it.

Key:
[1] = biological target: T1, GST-Prp40FF1-2 (amino acids 129-264) (Saccharomyces cerevisiae, UniProt P33203 129-264); assay: peptide or protein array; SPOT 15-mer peptides (3 aa shifts; alanine scan and substitution analysis of A24) on a β-alanine membrane, probed overnight at 4°C with 10 μg/ml purified GST fusion protein, detected with anti-GST antibody; conditions: both partners purified
T1 construct: Prp40, S. cerevisiae, residues 129-264 (Prp40FF1-2); also called GST-FF1-2; source: E. coli BL21, purified (glutathione Sepharose 4B)
T1 sequence (looked up): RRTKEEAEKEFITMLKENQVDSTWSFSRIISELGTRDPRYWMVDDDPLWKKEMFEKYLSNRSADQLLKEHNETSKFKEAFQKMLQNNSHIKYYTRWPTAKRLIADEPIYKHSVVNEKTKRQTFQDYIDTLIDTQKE

[2] = biological target: T2, GST-Prp40FF1 (amino acids 129-201) (Saccharomyces cerevisiae, UniProt P33203 129-201); assay: as above; conditions: both partners purified
T2 construct: Prp40, S. cerevisiae, residues 129-201 (Prp40FF1); also called GST-FF1; source: E. coli BL21, purified (glutathione Sepharose 4B)
T2 sequence (looked up): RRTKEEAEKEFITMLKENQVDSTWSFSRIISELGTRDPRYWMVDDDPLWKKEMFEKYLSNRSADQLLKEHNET

- binding result [1]: binds
B1: Snu71 peptide B1, H418LANDVHYDHHRSFK432 (peptide)
peptide: HLANDVHYDHHRSFK
notes: Snu71, S. cerevisiae, residues 418-432

- binding result [1]: binds
- binding result [2]: binds
B2: Luc7 peptide A24, D214RRLADHFLGKIHLG228 (peptide)
peptide: DRRLADHFLGKIHLG
notes: also called A24 peptide
